Test results as given in patent publication US9097721B2, “Compositions comprising engineered phosphothreonine affinity reagents, methods of making, and methods of use” (The Board of Trustees of the University of Illinois, priority 2012, dated 2015).
Where “and” joins values, the source holds several entries; their conditions need not be identical. Identical values can stand only once. Entries after “also recorded” stand apart in the source; their conditions may differ. Like-named read-outs stand apart in the source and are kept apart here.

Assays:
[1] = biological target: T1, pT peptide (Rad 9-pT: SLEVpTEADATFYAKK) (Saccharomyces cerevisiae, UniProt P14737); test: Isothermal titration calorimetry (ITC); type: binding, yeast; conditions: in solution by ITC; FHA1 domain 35 μM in cell; listed as WT FHA1 domain
T1 construct: host or cells: chemical synthesis
Procedure: A fixed amount (10 μL) of the pT peptide (Rad 9-pT: SLEVpTEADATFYAKK (SEQ ID NO:9); 500 μM) was injected from the syringe into the sample cell containing the FHA1 domain (35 μM). […] Each measurement was repeated three times.
The affinity of the G2 variant and the WT FHA1 domain to the pT peptide (SLEVpTEADATFYAKK) (SEQ ID NO:9) was determined by ITC (FIG. 12). The sample cell contained the purified FHA1 domains (35 μM) and the injection syringe was filled with the pT peptide (350 μM). […] The FHA1 domains bound to the pT peptide with a stoichiometry of 1:1, and the ITC graph was fitted by the single site binding model.

[2] = Fluorescence-based thermal shift (FTS) assay, melting temperature; type: physicochemical; conditions: mid-point of melting curve
Procedure: (§1) The FTS assay was performed on a MxPro-Mx3005P instrument (Stratagene) following the protocol described by Giuliani et al (Giuliani et al. (2008) Biochemistry 47, 13974-84). It is a real-time assay using the SYBR® Green experiment setting with dissociation curve. The default FRROX filter set was used with an excitation wavelength of 492 nm and emission wavelength of 610 nm. FHA1 domains diluted with PBS to 2× final concentration (i.e. 2 μM and 8 μM) were mixed with 10×SYPRO® Orange protein gel stain (Invitrogen; 5000× concentration in DMSO) to give a final dye concentration of 10×. Then, to the protein wells only, 10 μL of the dye+protein mixture was added along with 10 μL of 1×PBS buffer. In other wells, 10 μL of either the pT peptide or its non-phosphorylated form (diluted to 2× final concentration with PBS, i.e. 100 μM and 500 μM) was added to 10 μL of dye+protein mixture. The final reaction volume was 20 μL with final concentrations of 1 μM or 4 μM of FHA1 domains, 50 μM or 250 μM of pT and non-phosphorylated peptides and 5× final concentration of the SYPRO® Orange. The assay was performed in duplicate in 96 well white PCR plates (BIO-Rad) covered with optically clear Microseal® ‘B’ Film (Bio-Rad) and heated from 25° C. to 95° C. and the melting curve was obtained with fluorescence (R) values plotted on the Y-axis and increasing temperature (° C.) on the X-axis. The mid-point of the curve gives the melting temperature (Tm), which shifts to a higher temperature in the presence of the pT peptide.
To evaluate the thermal stability of the D2 variant, phage particles displaying the D2 variant were heated at various temperatures (30° C., 37° C., 50° C., 60° C., 70° C., 80° C., and 95° C.) prior to incubation with the cognate pT peptide (Rad9-pT) and the non-phosphorylated form of the same peptide (Rad9-T). […] (FIG. 8). The D2 variant (purified six-his tagged protein) was mixed with SYPRO orange dye with or without the Rad9-pT-containing peptide and heated from 25° C. to 95° C. in a real-time PCR experiment known as the Fluorescence-based thermal shift (FTS) assay^36. In this assay, initially, the fluorescence of SYPRO orange dye is quenched in the aqueous environment of a folded protein, but as the protein starts to unfold upon heating, the dye interacts with the hydrophobic core of the protein and its fluorescence increases. Therefore, an increase in fluorescence of the dye is directly proportional to protein unfolding, until a temperature (referred to as Tm here) is reached at which the dye fluorescence decreases due to aggregation and precipitation of the protein. The melting temperature (Tm) of the D2 variant was determined by fluorescence-based thermal shift (FTS) assay to be approximately 5° C. lower than the Tm of the WT FHA1 domain. To improve the thermal stability of the D2 variant, affinity selection was carried out by heating the phage library displaying D2 variants at 50° C. prior to incubation with the pT peptide ligand to favor the isolation of variants that remained folded and functional above 50° C.
(§2) The Tm values of FHA1 variants were determined by FTS assay (Giuliani et al. (2008) Biochemistry 47, 13974-84). A representative Tm curve for the G2 variant at 1 μM concentration is shown (solid squares), alone and in the presence of the pT peptide (FIG. 11). […] The Tm values of the thermally stable variants (along with WT and D2 variant) at 1 μM and 4 μM concentration, along with the Tm shift in the presence of two different concentrations (50 μM and 250 μM) of the pT peptide, are listed in Table S3.
The Tm (temperature at which 50% of the protein is unfolded) of the protein domain variants was determined by a fluorescence-based thermal shift assay (Giuliani et al. (2008) Biochemistry 47, 13974-84). The proteins were mixed with SYPRO orange dye, and heated from 25° C. to 95° C. on a real-time thermocycler. […]

[3] = biological target: T2, cognate pT peptide (Rad9-pT) (Saccharomyces cerevisiae, UniProt P14737); test: FTS assay, Tm shift in the presence of the cognate pT peptide; type: binding, yeast
T2 construct: host or cells: chemical synthesis
Procedure: as §1, §2

[4] = biological target: T1, pT peptide (Rad 9-pT: SLEVpTEADATFYAKK); conditions: Durocher et al. (2000); read-out: previously reported Kd by ITC; cited from earlier work
Rad9-pT peptide = biological target: T3, Rad9-pT peptide (Saccharomyces cerevisiae, UniProt P14737); test: ELISA of GST fusions of FHA1 domains; type: binding, yeast; conditions: expressed in bacterial cytoplasm as GST fusion; listed as WT FHA1 domain
T3 construct: host or cells: chemical synthesis
Procedure: For production of FHA1-GST fusion protein, BL21 DE3 cells (10 mL; Stratagene) harboring the expression vector was grown overnight at 30° C. using the Overnight Express™ Autoinduction System 1 (Novagen). The next day, cells were lysed using BugBuster® 10× Protein Extraction Reagent (Novagen) following the manufacturer's instructions. Cell lysate (100 μL diluted 1:5 with PBST) was incubated with the biotinylated peptides as described above and detected using anti-GST antibody conjugated to HRP (diluted 1:10,000 with PBST; GE Healthcare).

B1: WT: N-terminal FHA1 domain of S. cerevisiae Rad53 protein kinase, residues 1-170 (SEQ ID NO:7) (protein, listed as Saccharomyces cerevisiae)
chain: MENITQPTQQSTQATQRFLIEKFSQEQIGENIVCRVICTTGQIPIRDLSADISQVLKEKRSIKKVWTFGRNPACDYHLGNISRLSNKHFQILLGEDGNLLLNDISTNGTWLNGQKVEKNSNQLLSQGDEITVGVGVESDILSLVIFINDKFKQCLEQNKVDRIRSNLKNT
Kd [1]: ~1000 nM and 1000 nM | Tm (° C.) ([2]; protein concentration 1 μM): 66.7 °C | Tm (° C.) ([2]; protein concentration 4 μM): 66.4 °C | Tm shift (° C.) in the presence of pT peptide ([3]; 50 μM pT peptide, protein 1 μM): 1.7 °C | Tm shift (° C.) in the presence of pT peptide ([3]; 50 μM pT peptide, protein 4 μM): 1.95 °C | Tm shift (° C.) in the presence of pT peptide ([3]; 250 μM pT peptide, protein 1 μM): 3.8 °C | Tm shift (° C.) in the presence of pT peptide ([3]; 250 μM pT peptide, protein 4 μM): 3.55 °C | Kd [4]: 530 nM | binding of GST fusion to Rad9-pT peptide (Rad9-pT peptide): bound specifically; also recorded: showed specific binding
